Measurements reported in patent publication US5837499A, “DNA encoding C5A receptor antagonists having substantially no agonist activity and methods of expressing same” (priority 1995, dated 1998).
Where a SMILES comes first, the peptide text is derived from it.

T1: C5a receptor (Homo sapiens, UniProt P21730)
T1 construct: Neutrophils were purified from human peripheral blood; endogenous in cells; host or cells: neutrophils from human peripheral blood
T1 sequence (P21730 1-350): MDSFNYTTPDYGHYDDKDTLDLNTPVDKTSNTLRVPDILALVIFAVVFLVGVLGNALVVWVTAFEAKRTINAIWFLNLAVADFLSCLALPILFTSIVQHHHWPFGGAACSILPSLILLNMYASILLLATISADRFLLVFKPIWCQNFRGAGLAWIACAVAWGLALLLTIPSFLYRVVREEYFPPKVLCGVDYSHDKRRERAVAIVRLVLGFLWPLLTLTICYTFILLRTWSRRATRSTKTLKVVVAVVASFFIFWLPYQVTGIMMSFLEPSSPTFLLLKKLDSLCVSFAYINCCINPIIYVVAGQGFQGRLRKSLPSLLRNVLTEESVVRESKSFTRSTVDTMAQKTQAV

B1: C5a(1-72,T1M,C27S,L72C) (protein, UniProt P01031 678-749, looked up, fragment T1M C27S L72C)
chain: MLQKKIEEIAAKYKHSVVKKCCYDGASVNNDETCEQRAARISLGPRCIKAFTECCVVASQLRANISHKDMQC
modifications: C5a anaphylatoxin
B2: C5a(1-71,T1M,C27S,Q71C) (protein, UniProt P01031 678-748, looked up, fragment T1M C27S Q71C)
chain: MLQKKIEEIAAKYKHSVVKKCCYDGASVNNDETCEQRAARISLGPRCIKAFTECCVVASQLRANISHKDMC
modifications: C5a anaphylatoxin
B3: C5a(1-71,T1M,C27S) (protein, UniProt P01031 678-748, looked up, fragment T1M C27S)
chain: MLQKKIEEIAAKYKHSVVKKCCYDGASVNNDETCEQRAARISLGPRCIKAFTECCVVASQLRANISHKDMQ
modifications: C5a anaphylatoxin
notes: comparison agonist
B4: C5a(1-71,T1M,C27S,Q71D) (protein, UniProt P01031 678-748, looked up, fragment T1M C27S Q71D)
chain: MLQKKIEEIAAKYKHSVVKKCCYDGASVNNDETCEQRAARISLGPRCIKAFTECCVVASQLRANISHKDMD
modifications: C5a anaphylatoxin
notes: comparison agonist
B5: C5a(1-71,T1M,C27S,Q71S) (protein, UniProt P01031 678-748, looked up, fragment T1M C27S Q71S)
chain: MLQKKIEEIAAKYKHSVVKKCCYDGASVNNDETCEQRAARISLGPRCIKAFTECCVVASQLRANISHKDMS
modifications: C5a anaphylatoxin
notes: comparison agonist
B6: C5a(1-71,T1M,C27S,Q71H) (protein, UniProt P01031 678-748, looked up, fragment T1M C27S Q71H)
chain: MLQKKIEEIAAKYKHSVVKKCCYDGASVNNDETCEQRAARISLGPRCIKAFTECCVVASQLRANISHKDMH
modifications: C5a anaphylatoxin
notes: comparison agonist
B7: C5a(1-71,T1M,C27S,Q71R) (protein, UniProt P01031 678-748, looked up, fragment T1M C27S Q71R)
chain: MLQKKIEEIAAKYKHSVVKKCCYDGASVNNDETCEQRAARISLGPRCIKAFTECCVVASQLRANISHKDMR
modifications: C5a anaphylatoxin
notes: comparison agonist
B8: C5a(1-71,T1M,C27S,Q71L) (protein, UniProt P01031 678-748, looked up, fragment T1M C27S Q71L)
chain: MLQKKIEEIAAKYKHSVVKKCCYDGASVNNDETCEQRAARISLGPRCIKAFTECCVVASQLRANISHKDML
modifications: C5a anaphylatoxin
notes: comparison agonist
B9: C5a(1-71,T1M,C27S,H67F,Q71C) (protein, UniProt P01031 678-748, looked up, fragment T1M C27S H67F Q71C)
chain: MLQKKIEEIAAKYKHSVVKKCCYDGASVNNDETCEQRAARISLGPRCIKAFTECCVVASQLRANISFKDMC
modifications: C5a anaphylatoxin
B10: Analogue 22: dimeric form of analogue No. 8, disulfide linked through the C-terminal cysteines (protein, UniProt P01031 678-748, looked up, fragment T1M C27S Q71C)
chain: MLQKKIEEIAAKYKHSVVKKCCYDGASVNNDETCEQRAARISLGPRCIKAFTECCVVASQLRANISHKDMC
modifications: C5a anaphylatoxin disulfide-linked dimer
notes: dimeric form of analogue No. 8, disulfide linked through the C-terminal cysteines
B11: C5a(1-70,T1M,C27S,M70C) (protein, UniProt P01031 678-747, looked up, fragment T1M C27S M70C)
chain: MLQKKIEEIAAKYKHSVVKKCCYDGASVNNDETCEQRAARISLGPRCIKAFTECCVVASQLRANISHKDC
modifications: C5a anaphylatoxin

Columns and labels:
[1] = molecular target: T1, C5a receptor; test: C5a induced Ca++ rise in fura-2 loaded neutrophils (antagonist IC50 / agonist EC50); assay type: cell-based; details: for Concentration up to which tested and agonist activity not detected (calcium rise): highest concentration tested, agonist activity was not detected
Description: The antagonism of the instant C5a analogues may be quantified as an IC50 in the calcium rise assay disclosed in Agents and Actions 21:375-378 (1987), described in detail in Example 7.
See Hugli et al., CRC Crit. Rev. Immunol. 1:321-326 (1981) and PCT WO 92/10205. A quantitative measure of this property may also be obtained using the calcium rise assay disclosed in Seligmann et al., supra, also described in Example 7. EC50 is a measure of agonistic activity. […] Applicants have not detected agonist activity of the instant C5a analogues up to a concentration of at Least about 8.0×10^-7 M, and preferably at least about 3.0×10^-6 M in the same calcium rise assay.
Recombinant human C5a was dissolved in Hanks buffer containing 0.01% Tween-20, and all stock dilutions of C5a were made in this buffer. The acetoxymethyl ester of fura-2 (fura 2AM, Molecular Probes) was dissolved in DMSO. Neutrophils were purified from human peripheral blood by sedimentation in 6% hetastarch (HESPAN, DuPont, Waukegan, Ill.), followed by counter flow elutriation as described in Chapman-Kirkland et al., J. Immunol. Meth. 142:95-104 (1991). Purified cells (2×10^6 /ml) were mixed with 0.2 uM fura- 2AM and incubated for 30 min at 37° C. in HEPES buffered Hanks solution without calcium or magnesium. Fifteen minutes before the assay, the cell suspension was transferred to a curvette containing a stir bar and calcium was added to 1 mM. The cell suspension was incubated with stirring at 37° C. Assays were terminated within 5 h of cell purification and a standard control response was obtained periodically to insure that the cell responses were not changing over the time of the experiment. The amount of fluorescence was determined using an SLM 8000 spectrofluorometer (SLM-Aminco Instruments, Urbana, Ill.). Curvettes were placed in the fluorometer and after obtaining a baseline for 10 sec, the C5a receptor antagonists to be tested for antagonistic properties were added and any change in fluoresence excitation ratio of 340 nm/380 nm (emission of 510 nm) was measured. Forty seconds after analogue addition, a challenge dose of C5a was added to a final concentration of 100 pM and the resulting change in excitation ratio was measured.
IC50 values were used as a measure of antagonist potency. These values are defined as the concentration of C5a analogue needed to reduce the calcium rise response of the 100 pM C5a challenge dose by 50%. EC50 values were used as a measure of agonist potency. […]

[2] = molecular target: T1, C5a receptor; test: Receptor binding assay: displacement of [125I]Bolton-Hunter-labelled C5a from PMNL membranes; details: Table 4, [125I]BH-C5a 4.0 pM, 120 min at 4° C., Cheng-Prusoff
Protocol: C5a and C5a receptor antagonists were tested for their affinity for the C5a receptor. […] PMNLs were resuspended in Hanks balanced salt solution, without Ca^++ and Mg^++ and which contained 10 mM HEPES; at pH 7.3, 2.5 mM MgCl2, 100 units/ml DNAse I, 0.1 mM PMISF, 10 μg/ml aprotonin and 10 μg/ml leupeptin. They were then equilibrated at 400 psi for 20 min at 4° C. in a nitrogen cavitation bomb. After evacuation into 3 volumes 0.5 M KHCO3 containing 25 mM EDTA and the protease inhibitors listed above, the gelatinous material was removed with forceps and the mixture was centrifuged at 400×g for 10 min at 4° C. The resulting supernatant was centrifuged at 50,000×g for 60 min at 4° C. The pellets from the aliquots representing 200×10^6 cells were stored at -70° C. For binding studies, these membranes were resuspended at an equivalent of 20×10^6 cells/ml in 50 mM HEPES at pH 7.3, containing 1 mM CaCl2, 5 mM MgCl2, 0.1 mM PMSF, 0.1% bacitracin and 0.5% BSA.
Nonspecific binding was determined in the presence of 10 nM unlabelled C5a. The binding reaction was initiated by the addition of the PMNL membranes and was continued for 120 min at 4° C. Bound and free radioactivity were separated by vacuum filtration through GF/C glass fiber filters (Whatman), pretreated for 90 min with 0.05% PEI (polyethyleneimine) using a Cell Harvester (Brandel, Gaithersburg, Md.). Filters were washed with 3×5 ml of ice-cold 5 mM Tris buffer at pH 7.4 and counted in a multiwell Gamma counter (Genesys). Data were analyzed using the non-linear regression analysis program, RS/1 (Bolt, Beranek and Newman, Boston) and expressed as IC50 values. The results are set forth below in Table 4 as Ki values using the Cheng-Presoff equation. See Braunwalder et al., supra

[3] = system: New Zealand White rabbits (C5a-induced enhancement in vascular permeability); test: Rabbit dermal model of inflammation ([125I]-BSA exudation after intradermal C5a); assay type: in vivo
Protocol: All experiments were performed on male New Zealand White rabbits weighing 2.5-3.0 kg. The backs; of the rabbits were shaved and 40-50 skin sites were designated with markers of different colors. Different stimuli (i.e., C5a, C5a analogue, C5a+C5a analogue, vehicle control, etc.) were injected intradermally at 0.1 ml/site using a sterile, disposable, 26 gauge, 0.5 in. needle and 1.0 cc tuberculin syringe. I.D. injections were administered in replicates of six, roughly 45 minutes before euthanization. C5a alone was injected at a dose of 50 ng/site, and the C5a receptor antagonists were co-injected at various concentrations with the same dose of C5a. At 20 minutes prior to euthanization, 18-36 uCi of [125I]-labeled bovine serum albumin in 1.0 ml physiological saline were introduced into the systemic circulation via the marginal auricular vein. At 45 minutes, the rabbit was euthanized with an I.V. overdose of sodium pentobarbital. […]
After death, the dorsal skin was excised and pinned to a wooden dissecting board. […] This procedure reduced variation among skin sites and decreased background radioactivity. […] Injection sites were then analyzed for their radioactive content using a Gamma Counter (Genesys).

[4] = system: New Zealand White rabbits (C5a-induced neutropenia); test: C5a-induced neutropenia in the rabbit; assay type: in vivo; details: i.v. bolus; for Inhibition of C5a-induced neutropenia vs vehicle-treated rabbits: 100 ng C5a i.v.
Protocol: All experiments were performed on male New Zealand White rabbits weighing 2.5-3.0 kg. Rabbits were anesthetized with 10 mg/kg xylazine and 50 mg/kg ketamine administered in combination intramuscularly. A 25 gauge butterfly catheter was inserted in the lateral ear vein to use for infusions. Each blood sample (0.2 ml) was collected from the central ear artery into a plastic syringe fitted with a 25 gauge, 5/8 inch needle and charged with 7.5% EDTA as an anticoagulant. Blood was immediately expressed into a microcentrifuge tubes containing 10 microliters of 7.5% EDTA. An initial arterial blood sample (#1) was obtained and immediately thereafter vehicle or the C5a analogue of Example 8 was infused intravenously (bolus injection). Twenty seconds later, a second blood sample (#2) was obtained and twenty seconds thereafter 100 ng of C5a in 0.2 ml were infused intravenously (bolus injection). Twenty seconds later, a third blood (#3) sample was taken. Thirty minutes later, a second round of blood sample (#4)--20 seconds--C5a infusion--20 seconds--blood sample (#5) was performed. Blood samples were evaluated by automated hematologic analysis (Technicon H*1) using software specific for rabbit blood. Reductions in neutrophil counts (number per milliliter) induced by C5a(C5a-induced neutropenia, determined by comparing blood sample #3 to #2 and #5 to #4) were compared between vehicle-treated and C5a analogue-treated animals.

| Molecule | Ki [2] | Concentration up to which tested and agonist activity not detected (calcium rise) [1] | also measured |
| --- | --- | --- | --- |
| CC[C@H](C)[C@H](N)C(=O)N[C@@H](CO)C(=O)N[C@@H](Cc1ccccc1)C(=O)N[C@@H](CCCCN)C(=O)N[C@@H](CC(=O)O)C(=O)N[C@@H](CCSC)C(=O)N[C@@H](CCC(N)=O)C(=O)N[C@@H](CC(C)C)C(=O)NCC(=O)N[C@@H](CCCNC(=N)N)C(=O)O [Decapeptide, reference compound] (H-ISFKDMQLGR-OH) |  |  | Agonist / antagonist character ([1]; result in words): significant agonist activity |
| B1 | 0.9 nM | > 1500 nM |  |
| B2 | 0.2 nM | > 3000 nM | ID50 (50% reduction in the radioactivity produced by C5a) ([3]; intradermal co-injection with 50 ng C5a/site): 70 ng/site; Pro-inflammatory reaction (agonist properties in vivo) ([3]; intradermal, 175 ng/site): did not cause a pro- inflammatory reaction; Inhibition of C5a-induced neutropenia vs vehicle-treated rabbits ([4]; 30-minute C5a challenge interval): 41%; Inhibition of C5a-induced neutropenia vs vehicle-treated rabbits ([4]; 40-second C5a challenge interval): 67%; Effect on baseline neutrophil counts (agonistic, C5a-like properties) ([4]; before C5a challenge): did not alter baseline neutrophil counts from normal |
| B3 | 3 nM |  |  |
| B4 | 8.5 nM |  |  |
| B5 | 7.5 nM |  |  |
| B6 | 0.15 nM |  |  |
| B7 | 0.35 nM |  |  |
| B8 | 0.035 nM |  |  |
| B9 | 0.1 nM | > 800 nM |  |
| B10 | 0.04 nM |  |  |
| B11 |  | > 1000 nM |  |
